Results reported in the supplement of paper PMC10724198.
± gives the standard deviation of the averaged measurements.

System: Saccharomyces cerevisiae
Assay: protein stability index of tFT-peptide fusion (C-terminal peptide) (PSI (0-1 scale)); higher = more stable (slower turnover)
Settings: genetic background: wild type; temperature: 30 C
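Further: PSI is a weighted mean of sequencing reads over stability bins, variants kept only with over 10 reads, mCherry proximal and sfGFP distal, peptide attached via GGGS linker.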

RVSYLLPFCSSV
protein stability index: 0.762 ± 0.11

KVHQHPFLHALS
protein stability index: 0.695 ± 0.012

SVWSSIMSVSFL
protein stability index: 0.6179 ± 0.00082

EVTSQGWRNGVD
protein stability index: 0.742 ± 0.028

PPHLCPTSLTTL
protein stability index: 0.642 ± 0.026

EKEKKKVHRQEE
protein stability index: 0.712 ± 0.059

NVKPGKIRRRRG
protein stability index: 0.667 ± 0.14

VLGGGLGVLTWV
protein stability index: 0.753 ± 0.018

PPWPPQVALPPT
protein stability index: 0.762 ± 0.068

ASKKIDIEKRGT
protein stability index: 0.705 ± 0.14

KCSKGSQGECHV
protein stability index: 0.671 ± 0.05

FSRVRNVLGLGG
protein stability index: 0.73 ± 0.12

IKNEKKNKRKKK
protein stability index: 0.71337 ± 0.00014

FSLPPNPQPKLL
protein stability index: 0.741 ± 0.07

FSVWCDLFGFFC
protein stability index: 0.674 ± 0.075

VVGFVRPGMQGL
protein stability index: 0.673 ± 0.052

LSPYFWITEDAS
protein stability index: 0.7028 ± 0.0051

PPSNASFSSPPH
protein stability index: 0.824 ± 0.035

AAWGSGMCLCVF
protein stability index: 0.559 ± 0.046

SIEEKRNKIDKI
protein stability index: 0.769 ± 0.2

PSPPPHPGGTRR
protein stability index: 0.652 ± 0.057

NGLACGSLTLLK
protein stability index: 0.6738 ± 0.0019

LFVAFGAAESFE
protein stability index: 0.67 ± 0.098

PDPPAPLPPHPV
protein stability index: 0.669 ± 0.053

LRVSPVALPSSW
protein stability index: 0.81 ± 0.13

SRWDPLYVPWRM
protein stability index: 0.696 ± 0.014

SLRPRPSLFPPP
protein stability index: 0.7196 ± 0.00099

LPLLSSLLALLY
protein stability index: 0.647 ± 0.042

LSYQTGTTRTRK
protein stability index: 0.728 ± 0.056

PRAPHHRIPEDL
protein stability index: 0.733 ± 0.097

PRPGGQGHPNAG
protein stability index: 0.742 ± 0.027

RWGPGRSGSRGA
protein stability index: 0.652 ± 0.022

MDTYIQKKKYIK
protein stability index: 0.69 ± 0.0099

RSLGLGGRGFWG
protein stability index: 0.715 ± 0.099

AAVRPAHRICYS
protein stability index: 0.733 ± 0.041

SKGISARLAREG
protein stability index: 0.653 ± 0.038

TPQLSYYKGNNL
protein stability index: 0.639 ± 0.013

DCSCRRSISVLV
protein stability index: 0.54 ± 0.024

LPTASLLPPPPP
protein stability index: 0.626 ± 0.078

ERCVCLRGVSSG
protein stability index: 0.708 ± 0.011

VGLFGLCRVFGM
protein stability index: 0.646 ± 0.023

PLCPPYPPGRVP
protein stability index: 0.6841 ± 0.0021

SSRALFLPSFLP
protein stability index: 0.731 ± 0.04

PPSLSGECSPSF
protein stability index: 0.6781 ± 0.0039

RSGCGVVGVWEE
protein stability index: 0.668 ± 0.032

WCRGVGSWRGRG
protein stability index: 0.688 ± 0.008

SCKLSPLGLLLL
protein stability index: 0.618 ± 0.016

VGRGGGGWRLEG
protein stability index: 0.694 ± 0.078

LVCTLLGAASAP
protein stability index: 0.708 ± 0.033

MVVEGLERWGRV
protein stability index: 0.723 ± 0.045

DLHCRSAILALL
protein stability index: 0.594 ± 0.034

VVSSAYRLKARP
protein stability index: 0.696 ± 0.046

EWPTESSLSSET
protein stability index: 0.689 ± 0.081

PSPPPHSAPPLP
protein stability index: 0.732 ± 0.025

DDFQVFCSNGMG
protein stability index: 0.708 ± 0.018

PLEKASMTLWGR
protein stability index: 0.691 ± 0.05

RSRPPVHVAAAL
protein stability index: 0.673 ± 0.074

RSGISFGIWVCF
protein stability index: 0.586 ± 0.048

KFRFPVDLIFET
protein stability index: 0.73 ± 0.015

VDVSGVCEFVLG
protein stability index: 0.706 ± 0.1

SGCGVRFLLCRL
protein stability index: 0.801 ± 0.065

ALRPYDVQVKFR
protein stability index: 0.622 ± 0.038

FPPAHPPPCLPP
protein stability index: 0.6473 ± 0.003

KHLIHSRLGICG
protein stability index: 0.6634 ± 0.0059

QVVAAGRPWGVF
protein stability index: 0.677 ± 0.011

RPPPPPHRTGDC
protein stability index: 0.607 ± 0.02

ISALYVPGILSK
protein stability index: 0.6 ± 0.018

GWDSGHLVVMEI
protein stability index: 0.715 ± 0.033

QKLKPRKESSKN
protein stability index: 0.698 ± 0.058

SFSFPPHPLKSL
protein stability index: 0.723 ± 0.1

PPVSLGCPPGRP
protein stability index: 0.776 ± 0.099

ERLHRRRRGECA
protein stability index: 0.6743 ± 0.0061

YTSRLGRGILHV
protein stability index: 0.671 ± 0.031

SRPIPSPPPRPV
protein stability index: 0.6473 ± 0.002

VFGKGRWDCFLI
protein stability index: 0.727 ± 0.073

LTRLETSNITAI
protein stability index: 0.679 ± 0.041

TKIKKKKNKKQE
protein stability index: 0.731 ± 0.0013

AFCKTGSAGVGI
protein stability index: 0.634 ± 0.046

SKLTRHVDLHGS
protein stability index: 0.6898 ± 0.0017

SLPFCFIPVAPF
protein stability index: 0.756 ± 0.058

PHLPPRPFPTAP
protein stability index: 0.757 ± 0.063

PPPPPACRLCFF
protein stability index: 0.634 ± 0.1

GYLEGMVYRESD
protein stability index: 0.689 ± 0.025

SFNLFFVVSPAL
protein stability index: 0.608 ± 0.097

KTTRTGRHTAPN
protein stability index: 0.676 ± 0.028

DGSGPSWGRKGR
protein stability index: 0.6942 ± 0.0043

NKTNSKKSIFTV
protein stability index: 0.703 ± 0.01

CNFGLHSCALLY
protein stability index: 0.723 ± 0.033

CLAGLGPADFGM
protein stability index: 0.674 ± 0.057

HPGLRLENVNPQ
protein stability index: 0.702 ± 0.014

FNIPYLVQATGD
protein stability index: 0.676 ± 0.09

GASDWVMLYWVV
protein stability index: 0.584 ± 0.0098

EGEGPRGNGSGA
protein stability index: 0.648 ± 0.043

PPALPLFPNAAG
protein stability index: 0.709 ± 0.049

GIGEGRDGFVVV
protein stability index: 0.67 ± 0.058

LSSFPLPFPPPL
protein stability index: 0.659 ± 0.013

PLYPPPVNIPPT
protein stability index: 0.81 ± 0.067

PPRPPPHPPLPP
protein stability index: 0.678 ± 0.0057

VGRVGEGGGGRG
protein stability index: 0.679 ± 0.046

TKDRGRVYRQRG
protein stability index: 0.798 ± 0.051

LCSLSLCSYSIF
protein stability index: 0.6 ± 0.0053

TLVSCRLVPSSR
protein stability index: 0.671 ± 0.056

DRLGFGPVSRID
protein stability index: 0.665 ± 0.064

KKRREKKYQHKI
protein stability index: 0.713 ± 0.039

RKLFLKNELGSK
protein stability index: 0.7 ± 0.14

VCGLGGGQWQGV
protein stability index: 0.729 ± 0.028

VVVLVGGGWVCV
protein stability index: 0.51 ± 0.035

PPRPPPAPPPLP
protein stability index: 0.642 ± 0.0021

VGWLCVLGGAQR
protein stability index: 0.762 ± 0.045

RNRYCNLRVGFD
protein stability index: 0.679 ± 0.011

PVYSIARLVPGV
protein stability index: 0.693 ± 0.029

SLLPSHFASFSP
protein stability index: 0.744 ± 0.03

LRPFSPSPPRPF
protein stability index: 0.705 ± 0.013

TPSSPSARHPPP
protein stability index: 0.715 ± 0.036

ILPCLSVRFFAP
protein stability index: 0.658 ± 0.0068

FNTCCQNTWKVK
protein stability index: 0.677 ± 0.15

SLPAPRLGCIPC
protein stability index: 0.64 ± 0.044

GILFFPSGGISP
protein stability index: 0.805 ± 0.12

IYHCRKSYKTRQ
protein stability index: 0.7205 ± 0.0042

VANRFRSILVRR
protein stability index: 0.599 ± 0.023

QFVLWPSVLGLG
protein stability index: 0.648 ± 0.054

RCHIPGRIVKTR
protein stability index: 0.628 ± 0.046

PVCASVSLTSSP
protein stability index: 0.697 ± 0.024

LRVNFPLHDPHP
protein stability index: 0.65 ± 0.049

TLGYLPLRSLKI
protein stability index: 0.641 ± 0.046

AIYKGVIVGKKS
protein stability index: 0.646 ± 0.043

PIYQTYSRHSYL
protein stability index: 0.683 ± 0.0089

RISGVEKPLLRV
protein stability index: 0.663 ± 0.015

PFPCPSLPPPFP
protein stability index: 0.716 ± 0.022

SSHSFFLFRISL
protein stability index: 0.608 ± 0.061

GSSAPSYTIGPE
protein stability index: 0.682 ± 0.017

LLPFLPPPPCPP
protein stability index: 0.72 ± 0.022

ECVGSSKVYMLL
protein stability index: 0.677 ± 0.092

PRERADPSLPVK
protein stability index: 0.663 ± 0.035

VVLFPILKLLSN
protein stability index: 0.53 ± 0.015

VRRGAAGDDWGW
protein stability index: 0.869 ± 0.057

GWCGGLWRFGWG
protein stability index: 0.723 ± 0.092

IRKKNKEKIKNQ
protein stability index: 0.691 ± 0.25

GGNGIVPVWMNF
protein stability index: 0.695 ± 0.041

PTPCCFPHPPPT
protein stability index: 0.709 ± 0.02

PPLPPPRPLSPC
protein stability index: 0.713 ± 0.094

PSVPPSPPAPPT
protein stability index: 0.687 ± 0.032

SGCIYLLQTPME
protein stability index: 0.636 ± 0.012

MLFWDVGLLVFN
protein stability index: 0.579 ± 0.049

NRDIYQNWPKRK
protein stability index: 0.831 ± 0.14

PPSAALPTSPTG
protein stability index: 0.6911 ± 0.0015
